In US12358960B2, “Selective targeting of ubiquitin- and ubiquitin-like E1-activating enzymes by structurally-stabilized peptides” (Dana-Farber Cancer Institute, Inc., priority 2019, dated 2025):
Entries after “also recorded” stand apart in the source; their conditions may differ. Bridge positions count the residues as written; N and C are the ends. Square brackets hold non-standard residues; d marks the D form. Ends that are not written are not given here. * marks the point of attachment. Biotin = O=C1N[C@H]2[C@H](CS[C@H]2CCCCC(=O)*)N1; R8 = C=CCCCCCC[C@@](C)(N)C(=O)O; S5 = C=CCCC[C@](C)(N)C(=O)O; Nle = CCCC[C@H](N)C(=O)O; Dab = NCC[C@H](N)C(=O)O; Acryloyl = C=CC(=O)*

Assays:
[1] = Circular dichroism, α-helicity; assay type: physicochemical; conditions: in solution
Protocol: Assays to Determine α-Helicity: Compounds are dissolved in an aqueous solution (e.g., 5 mM potassium phosphate solution at pH 7, or distilled H2O, to concentrations of 25-50 μM). Circular dichroism (CD) spectra are obtained on a spectropolarimeter (e.g., Jasco J-710, Aviv) using standard measurement parameters (e.g., temperature, 20° C.; wavelength, 190-260 nm; step resolution, 0.5 nm; speed, 20 nm/sec; accumulations, 10; response, 1 sec; bandwidth, 1 nm; path length, 0.1 cm). The α-helical content of each peptide is calculated by dividing the mean residue ellipticity by the reported value for a model helical decapeptide (Yang et al., Methods Enzymol. 130:208 (1986)).
Circular Dichroism: Acetylated peptides were dissolved in 10% (vol/vol) acetonitrile in water for circular dichroism analyses, performed on an Aviv Biomedical spectrophotometer, as reported (see Bird et. al., Methods in Enzymol., 446:369-386 (2008)).

[2] = biological target: T1, Human E1 activating enzyme UBA1 (Homo sapiens, UniProt P22314); test: In vitro enzyme inhibition assay: E1-mediated ubiquitin thioester transfer to E2 (band shift, silver stain); assay type: biochemical; conditions: for inhibition of E1-mediated thioester transfer to E2 by mutant / additional stapled peptides: SAH-UBE2A-11 variants and controls, Examples 4, 7, 13; for inhibition of E1-mediated ubiquitin transfer to E2 (conversion of E2 to E2~ubiquitin): 100 μM peptide, staple scan; for inhibition of E1-mediated thioester transfer to E2 by warhead-bearing stapled peptides: Example 8
T1 sequence (P22314 1-1058): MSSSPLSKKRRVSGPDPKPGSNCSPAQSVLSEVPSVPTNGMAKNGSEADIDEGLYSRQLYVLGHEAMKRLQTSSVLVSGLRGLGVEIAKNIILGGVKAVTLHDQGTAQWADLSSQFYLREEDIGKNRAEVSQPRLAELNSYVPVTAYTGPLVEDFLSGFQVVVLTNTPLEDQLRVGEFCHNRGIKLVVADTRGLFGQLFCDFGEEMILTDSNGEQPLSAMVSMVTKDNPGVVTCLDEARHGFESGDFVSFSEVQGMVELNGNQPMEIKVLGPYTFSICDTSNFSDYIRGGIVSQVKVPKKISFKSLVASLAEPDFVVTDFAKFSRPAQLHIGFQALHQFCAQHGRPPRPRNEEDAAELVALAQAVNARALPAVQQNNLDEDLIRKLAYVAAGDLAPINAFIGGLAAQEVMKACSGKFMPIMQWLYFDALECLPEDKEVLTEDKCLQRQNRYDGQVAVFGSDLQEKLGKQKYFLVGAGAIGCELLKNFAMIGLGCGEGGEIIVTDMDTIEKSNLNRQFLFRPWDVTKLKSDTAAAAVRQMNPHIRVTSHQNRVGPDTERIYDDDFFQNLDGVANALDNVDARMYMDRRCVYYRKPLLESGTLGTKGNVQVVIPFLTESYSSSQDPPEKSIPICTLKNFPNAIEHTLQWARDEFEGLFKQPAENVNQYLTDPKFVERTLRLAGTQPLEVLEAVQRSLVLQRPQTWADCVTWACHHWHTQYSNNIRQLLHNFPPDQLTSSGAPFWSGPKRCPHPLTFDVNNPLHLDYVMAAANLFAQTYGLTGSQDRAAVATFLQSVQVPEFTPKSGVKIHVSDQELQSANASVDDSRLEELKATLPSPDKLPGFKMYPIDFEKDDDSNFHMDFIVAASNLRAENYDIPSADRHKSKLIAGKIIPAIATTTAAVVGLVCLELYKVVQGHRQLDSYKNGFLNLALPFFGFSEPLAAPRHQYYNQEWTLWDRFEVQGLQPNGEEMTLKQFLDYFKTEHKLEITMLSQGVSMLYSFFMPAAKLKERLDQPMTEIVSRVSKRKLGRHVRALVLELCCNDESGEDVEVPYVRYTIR
Protocol: In vitro Enzyme Inhibition Assays: To assess an E2 hA peptide's inhibition of an E1 enzyme, an in vitro enzyme inhibition assay can be used, for example. The in vitro enzyme inhibition assay measures an E2 hA peptide's ability to inhibit conjugation of ubiquitin to E2 by E1. Briefly, recombinant E1 (e.g., UBA1), recombinant E2 (e.g., UBE2A), ubiquitin, and Mg-ATP are combined in the presence of an E2 hA peptide or vehicle control (e.g., 1% DMSO) for a period of time (e.g., 30 minutes) at room temperature in a buffer containing, e.g., 50 mM NaCl, 50 mM HEPES pH 7.5. Control reaction includes no E1. Reactions are quenched by addition of SDS-containing loading dye and samples are resolved on a gel (e.g., a 4-12% Bis-Tris protein gel) under nonreducing conditions. Proteins on the gel are visualized via, e.g., silver stain. Conjugation of ubiquitin to E2 by E1 is monitored by conversion of free E2 (˜17 kDa) to E2˜ubiquitin conjugate (˜26 kDa).
Control reaction included no E1 enzyme. Reactions were quenched by addition of SDS-containing loading dye and samples were resolved on a 4-12% Bis-Tris protein gel under nonreducing conditions. Proteins were visualized via silver stain. Conjugation of ubiquitin to E2 by E1 was monitored by conversion of free E2 (17 kDa) to E2˜ubiquitin conjugate (26 kDa).
The ability of the peptides to inhibit E1-mediated thioester transfer to E2 was evaluated. Human E1 activating enzyme UBA1 (10 nM), UbcH5b E2 enzyme (150 nM), ubiquitin (1 μM), and Mg-ATP (20 μM) were combined in the presence of stapled peptide at a range of concentrations or vehicle control (1% DMSO) for 45 minutes at room temperature in buffer containing 50 mM NaCl, 50 mM HEPES, 1 mM TCEP pH 7.5. Reactions were quenched by addition of SDS-containing loading dye and samples were resolved on a 4-12% Bis-Tris protein gel under nonreducing conditions. Proteins were visualized via silver stain. Conjugation of ubiquitin to E2 by E1 was monitored by conversion of free E2 (17 kDa) to E2˜ubiquitin conjugate (26 kDa). Inhibition percentage was calculated from densitometry of silver stain images.
Streptavidin-biotin pull-down assays: For recombinant protein pull-downs, 10 pmol recombinant human UBA1 was incubated with 5 nmol C-terminally biotinylated SAH-UBE2A or DMSO vehicle control in a total volume of 1 mL binding buffer (50 mM NaCl, 20 mM HEPES, pH 7.4, 5 mM DTT) for 1.5 hours at 4° C. 30 μL of pre-equilibrated streptavidin agarose beads were then added and incubated for an additional 1.5 hours at 4° C. The beads were pelleted by centrifugation and washed three times with NP-40 buffer (20 mM HEPES, pH 7.4, 50 mM NaCl, 5 mM DTT, 0.5% [v/v] NP-40) before eluting the protein sample from the beads by heating at 70° C. for 10 min in 3×SDS loading buffer. Samples were subjected to electrophoresis and silver staining (Pierce 24612). For pull-down from cellular lysates, 0.75 mg HeLa cell lysate was incubated with 5 nmol C-terminally biotinylated SAH-UBE2A or DMSO vehicle control in a total volume of 1 mL binding buffer (50 mM NaCl, 20 mM HEPES, pH 7.4, 5 mM DTT) containing protease-phosphatase inhibitor cocktail for 2 hours at 4° C. 30 μL of pre-equilibrated streptavidin agarose beads (ThermoFisher 20357) were then added and incubated for an additional 1.5 hours at 4° C. The beads were pelleted by centrifugation and washed three times with NP-40 buffer (20 mM HEPES, pH 7.4, 50 mM NaCl, 5 mM DTT, 0.5% [v/v] NP-40) before eluting the protein sample from the beads by heating at 70° C. for 10 min in 3×SDS loading buffer. Proteins were separated by SDS-PAGE gel electrophoresis and detected by western blot against UBE1 (Abcam ab34711). In vitro Enzyme Inhibition Assays: Recombinant human E1 activating enzyme UBA1 (10 nM), E2 enzyme (150 nM), ubiquitin (1 μM), and Mg-ATP (20 μM) are combined in the presence of peptide or vehicle control (1% DMSO) for 45 minutes at room temperature in buffer containing 50 mM NaCl, 50 mM HEPES pH 7.5. Control reaction includes no E1 enzyme. […]

Substance	helicity / helical content [1]	inhibition of E1-mediated ubiquitin transfer to E2 (conversion of E2 to E2~ubiquitin) ([2]; UbcH5b E2 enzyme, 45 minutes)	inhibition of E1-mediated thioester transfer to E2 by warhead-bearing stapled peptides [2]	other results
BPSSASRQLLRKQLKEIQZ ([Nle]PSSASRQLLRKQLKEIQK(Biotin)) [Ubc15-1, unmodified Ubc15 peptide, Z is biotinylated lysine]	19%	–	–	–
BSTPARRRLBRDFKRLQ ([Nle]STPARRRL[Nle]RDFKRLQ-NH2; not fully specified (N-terminus)) [UBE2A, unmodified (unstapled) UBE2A peptide, B is norleucine]	21%	–	–	inhibition of E1-mediated thioester transfer to E2 by mutant / additional stapled peptides [2]: no inhibitory activity; also recorded: negligible inhibitory activity
BPSSAX1RQLLRKX2LKEIQ [SEQ ID NO:50]	51%	best in this panel at inhibiting E1-mediated ubiquitin transfer to E2	–	inhibition of E1-mediated thioester transfer to E2, dose response ([2]; range of peptide concentrations, UbcH5b E2 enzyme, 45 minutes, listed as SAH-Ubc15-11): inhibited E1-mediated thioester transfer to E2 in a dose-dependent manner; also recorded: dose-dependently inhibit E1-mediated thioester transfer to E2
BSTPX1RRRLBRX2FJRLQ ([Nle]STP[R8]RRRL[Nle]R[S5]F[Dab](Acryloyl)RLQ; staple 5-12; not fully specified (N-terminus, C-terminus); printed as BSTPX1RRRLBRX2FJRLQ) [SEQ ID NO:752, warhead-bearing stapled peptide, J acrylamide-bearing Dab at A11, staple A2 and A9]	–	–	inhibited E1-mediated thioester transfer to E2	–
BX1LKRIHJX2LNDLARD ([Nle][R8]LKRIH[Dab](Acryloyl)[S5]LNDLARD; staple 2-9; not fully specified (N-terminus, C-terminus); printed as BX1LKRIHJX2LNDLARD) [SEQ ID NO:691, warhead-bearing stapled peptide, J acrylamide-bearing Dab at A8, staple A2 and A9]	–	–	did not inhibit E1-mediated thioester transfer to E2	–
BSTPX1RRRLJRX2FKRLQ ([Nle]STP[R8]RRRL[Dab](Acryloyl)R[S5]FKRLQ; staple 5-12; not fully specified (N-terminus, C-terminus); printed as BSTPX1RRRLJRX2FKRLQ) [SEQ ID NO:680, warhead-bearing stapled peptide, J acrylamide-bearing Dab at A7, staple A2 and A9]	–	–	inhibited E1-mediated thioester transfer to E2	–
BPSSAX1RQLLRKX2LJEIQ ([Nle]PSSA[R8]RQLLRK[S5]L[Dab](Acryloyl)EIQ; staple 6-13; not fully specified (N-terminus, C-terminus); printed as BPSSAX1RQLLRKX2LJEIQ) [SEQ ID NO:844, warhead-bearing stapled peptide, J acrylamide-bearing Dab at A11, staple A2 and A9]	–	–	inhibited E1-mediated thioester transfer to E2	–
BPSSASRQLX2RKQX2KEIQ [SEQ ID NO:45]	–	unable to inhibit E1-mediated ubiquitin transfer to E2	–	–
BSTPX1RERLBRX2FKRLQ (Ac-[Nle]STP[S5]RERL[Nle]R[R8]FKRLQ-NH2; staple 5-12) [SAH-UBE2A-11-R7E, point mutant negative control stapled peptide]	–	–	–	inhibition of E1-mediated thioester transfer to E2 by mutant / additional stapled peptides [2]: reduced inhibitory activity as compared to SAH-UBE2A; inhibition of E1-mediated thioester transfer to a variety of human E2 enzymes ([2]; panel of human E2 enzymes (UBE2A, UBE2B, UBE2C, UBE2D1-4 etc.)): diminished inhibitory capacity; also recorded: mitigated by a single point mutation (R7E)
BPSSX2SRQX2LRKQLKEIQ [SEQ ID NO:41]	–	unable to inhibit E1-mediated ubiquitin transfer to E2	–	–
